This note sets out measurements from the nanobody polyreactivity screen of Harvey et al. (2022).

This data set in a line: yeast display, Sf9 membrane polyspecificity reagent, FACS + sequencing; frameworks hold sequencing errors. An outline of the steps: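 Genes from sorted yeast were amplified by colony PCR, read by MiSeq 2 × 250 sequencing and filtered on CDR length. These cells carried a synthetic nanobody library in Saccharomyces cerevisiae BJ5465 and were sorted by FACS into low and high (top ~1%) gates on anti-HA and streptavidin fluorescence. Polyreactivity is labelled according to the gate of origin.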
On to “QVQLVESRGGLVQAGGSLRLSCAASGFTFERYTMGWYRQAPGKERELVAGINYSGGSTYYADSVKGRFTISRDNAKNTVYLQMNSLKPEDTAVYYCAKDFPYSRYRRRYYYWGQGTQVTVSS”, for which the “polyreactivity (PSR sort gate)” value is “high polyreactivity”.
For the sequence “QVQLVESRGGLVQAGGSLRLSCAASGFTFRLYAMGWSRQAPGKERELVAALTGRGGNTYYADSVMGRFTISRDNAKNTVYLQRNSLNPEDTAVYYCNRYTQWVGYDYWGQGTQVTVSS”, the “polyreactivity (PSR sort gate)” value is recorded as “high polyreactivity”.
Regarding “QVQLVESRGGLVQAGGSLRLSCAASGFTFSGNARGWYRQAPGKERECVAAISNRSGRTYYADSVKGRFTISRYNAKNTVYLQMNSLKPEDTAVYYCAAESIYTWGIRGDYWGHGTQVTVSS”, the “polyreactivity (PSR sort gate)” value is “high polyreactivity”.
For the sequence “QVQLVESRGGLVQAGGSLRLSCAASGITFRYYAMGWYRQEPGKERELVAAINRGGDSTYYADSVKGRFTISRDIAKNTVYLQMNSLKPVDTAVYYCAASSSNKEYDYWGLGTQVTVSS”, the “polyreactivity (PSR sort gate)” value is listed as “high polyreactivity”.
With “QVQLVESRGGLVQAGGSLRLSCAASGLIFLGYAMGWYRQAPGKERELVASIRTGGSTSYADSVKGRFTISRDNAKNTVYLQMNSLKPEDTAVYYCAADRGRPNLPGDYWGQGTQVTVSS” the entry was “low polyreactivity”; with “QVQLVESRGGLVQAGGSLRLSCAASGNTFQPYAMGWYRQAPGKERELVAAITWSGDTTYYADSVKARFTISRDNAKNTVYLQMNSLKPEDTAVYYCYPYFWYPDGYTYDYWGQGTQVTVSS”, “high polyreactivity”.
For the sequence “QVQLVESRGGLVQAGGSLRLSCAASGRIFAWNAMGWSRQAPGKERELVAVITSGGNTNYADSVTGRFTISRDNAKNTVYLQLNSLKPEDTAVYYCPKIGYAKRTRFWSHYDYWGQGTQVTVSS”, the “polyreactivity (PSR sort gate)” value is on record as “high polyreactivity”.
To “QVQLVESRGGLVQAGGSLRLSCAASGRIFSKYAMGWYRQAPGKERELVAGITIAGRTKYADSVKGRFTISRDNAKNTVYLQMNSQKPEDTAVYYCAARAQATGGYGYWGQGTQVTVSS” belongs “high polyreactivity”; to “QVQLVESRGGLVQAGGSLRLSCAASGRIIGYNAMGCYRQAPGKERELVAAINSDGSKNYADSVKGRFTISRDNAKNTVYLQMNSLKPEDTAVYYSIKELYPVGDYEYWGQGSQVTVSS”, “low polyreactivity”; to “QVQLVESRGGLVQAGGSLRLSCAASGRILDLNSMGWYRQAPGKEREFVAAISYSGGRTYYADSVKGRFTISRDNAKNTVYLQMNSLKPEDTAVYYCATDDVWKDGYWGQGTQVTVSS”, “low polyreactivity”.
With “QVQLVESRGGLVQAGGSLRLSCAASGRTFGGYAMGWYRQAPGKERELVAAISTRGGTTYYADSVKGRFTISRDNAKNTVYLQMNSLKPEDTAVYYCAAVYLYYYNRYYYWGQGSQVTVSS” the entry was “high polyreactivity”; with “QVQLVESRGGLVQAGGSLRLSCAASGRTFQYYAKGWYRQERGKVRELVAAISGSTSRTYYADSVKGRFTISRDNAKNTVYLQMNSLKPEDTAVSYCAAALYRLYITSYYYWGPGTQVTVSS”, “high polyreactivity”.
To “QVQLVESRGGLVQAGGSLRLSCAASGRTFRSYVMGWYRQAPGKERELVAAITTSGGSTYYADSVKGRFTISRDTAKNTVYLQMNSLKPEETAVYYCAAEYYTYTGHYDSWYGDDYWGQGTQVTVSS” belongs “high polyreactivity”; to “QVQLVESRGGLVQAGGSLRLSCAASGRTFWYYAMGWYRQAPGKELELVATITGSGGTTYYADSVKGRFTISRDNAKNTVYLQMNSLKPEDTAVYYCAKEQHWYIYGPAEVDYWGQGTQVTVSS”, “high polyreactivity”; to “QVQLVESRGGLVQAGGSLRLSCAASGRTLKYNVMGWYRQAPGKERELVASITSRGGSTRYADSVKGRFTISRDNAKNTVYLQMNSLKPEDTAVYYCAARYTTARSSYDYWGQGTQVTVSS”, “high polyreactivity”.
As for “QVQLVESRGGLVQAGGSLRLSCAASGSIFAIYTMGWYRQAPGKERELVAAITGNGGRTYYADSVKGRFTISRDNAKNTVYLQMNSLKPEDTAVYYCAVVGYHRDYDYWGQGTQVTVSS”, the “polyreactivity (PSR sort gate)” value is listed as “low polyreactivity”.
To “QVQLVESRGGLVQAGGSLRLSCAASGSIFDVNAMGWYRQAPGKERELVAAISQRGTRTYYADSVKGRFTISRDNAKNTVYLQMNSLKPEDTAVYYCNRGGWREYDSWGQGTQVTVSS” belongs “high polyreactivity”; to “QVQLVESRGGLVQAGGSLRLSCAASGSIFGWYAMGWYRPAPGKERELVAAINWSGGRTYYADSVKGRFTISRDNAKNTVYLQMNRLKPEDTAVYYCNKVVPGYSAPKYDYWGQGTQVTVSS”, “high polyreactivity”.
With “QVQLVESRGGLVQAGGSLRLSCAASGSIFNYNAMGCYRQAPGKEREFVAAINQGGTSTYYADSVKGRFTISRDNANHTVYLQMNSLKPEDTAVYYCAALITVYRGSYEYCGQGTQVTVSS” the entry was “low polyreactivity”.
Regarding “QVQLVESRGGLVQAGGSLRLSCAASGSIFVWNAKGWYRQAPGKERELVAAINVRSASTFYADSVKGRFTISRDIAKNTVYLQMNSLKPEDTAVYYCATSYTKQGFRYYYWGQGTQVTVSS”, the “polyreactivity (PSR sort gate)” value was “high polyreactivity”.
To “QVQLVESRGGLVQAGGSLRLSCAASGSNFYAYAMGWYRQAPGKERELVAAISWSTSSTYADSVKGRFTISRDNAKNTVYLQMNSLKPEDTAVYYCAASPYKGTGAEFDYWGQGTQVTVSS” belongs “low polyreactivity”; to “QVQLVESRGGLVQAGGSLRLSCAASGSTFNYYTMGWNRQAPGKERELVATITSGGTTYYADSVKGRFTISRDNAKNTVYLQMNSLKPEDTAVYYCAVQLRRHVDMDYWGQGTQVTVSS”, “high polyreactivity”.
To “QVQLVESRGGLVQAGGSLRLSCAASGSTFTYNAMGWYRQAPGKERELDAAISSDGRTYYADSVKGRFTISRDNAKNTVYLQMNSLQPEDTALYYCAAMYWFYVYPFTEYDYWGQGTQVTVSS” belongs “low polyreactivity”; to “QVQLVESRGGLVQAGGSLRLSCAASGSTFTYYAMGWYRQAPGKERELVAAITFRGDSTYYADSVKVRFTISRDNAKNTVYFQMNSLKPEDTAVYYWGQGTQVTVSS”, “low polyreactivity”; to “QVQLVESRGGLVQAGGSLRLSCAASGSTLSQNAMGWYRQAPGKEREFDADISGSGDSTYYADSVKGRFTISRDNAKNTFYLQMNSLKPEDTAVYYCATPSPHVGLKWEYDYWGQGTQVTVSS”, “low polyreactivity”.
To “QVQLVESRGGLVQAGGSLRLSCAASGSTLYQYAMGWYRQAPGKERELVAAITKSGGRTYYADSVKGRFTISRDNAKNTVYLHMNSLKPEDTAVYYCNVVRGSYSSGGDYWGQGTQVTVSS” belongs “high polyreactivity”; to “QVQLVESRGGLVQAGGSLRLSCAASGYIFRSNAMGWYRQAPGKERELVAAITRSGGSTYYADSVKGRFTISRDNAKITVFLQMNSLKPEDTAVYYCAVLPRGSNGMDYWGQGTQVTVSS”, “low polyreactivity”.
As to “QVQLVESRGGLVQAGGSLRLSCAASGYTFDWYTMGWYRQAPGKERELVAAISASGVRTYYADSVKGRFTISRDNAKNTVYLQMNSLKPEDTAVYYCYRVYSTSRITQYEFDYWGLGTQVTVSS”, the “polyreactivity (PSR sort gate)” value is “low polyreactivity”.
With “QVQLVESRGGLVQAGGSLRLSCAASVRTFQKNTMGWYRQAPGKERELVAAIDYSATSTYYADSVKGRFTISRDNAKNTVYLQMNSLKPEDTAVYYCAARWSYPRWEFDYWGQGTQVTVSS” the entry was “high polyreactivity”.
With “QVQLVESRGGLVQAGGSLRLSCSASGFIRTYAMGWYRQAPAKERELVAAITSSGGRTNYADSVKGRFTISRDNAKNTVYLQMNSLKPEDTAVYYCAAGLGRYLRYNYWGQGTQVTVSS” the entry was “high polyreactivity”; with “QVQLVESRGGLVQAGGSLRLSCSASGITFNHYAMGWYRQAPGKERQLVAAITGSGGSTYYADSVKGRFTISRDNGKNTVYLQMNSLKPEDTAVYYCKTSPKLTYAVLYDYWGQGTQVTVSS”, “high polyreactivity”.
With “QVQLVESRGGLVQAGGSLRLSSAASGFIFDDNAMGWYRQAPGKERQLVAAITSGGGSTYYADSVKGRFTISRDNAKNTVYLQMNSLKPDDTAVYSCNAKLFIRWFTYDYWGQGTQVTVSS” the entry was “low polyreactivity”.
“QVQLVESRGGLVQAGGSLRLTCAAYGRIFLVYDMGWYRHAPGKERELVAAISWSTGSTYYADSVKGRFTISRDNAKNTFYFQINSLITEDTAVYYCAAEPELDDYEHDYWGQGTQLTVSS”: the “polyreactivity (PSR sort gate)” value is listed as “low polyreactivity”.
With “QVQLVESRGGLVQVGGSLRLSCAASGRTFGRYAMGWYRQAPGNERELVAAINSVARTNYADSVKGRFTISRDNAKNTVYLQMNSLKPEDSAVYYCAARRRGSVGVGYAYPYNYWGQGTQVTVSS” the entry was “high polyreactivity”; with “QVQLVESRGGVVQAGGSLRLSSAASGTFVYAMGWYRQAPGKERELVAAISYSGGSTYYADSVKGRFTISRDNAKNTVYLQMNSLKPEDTAVYYCAARTTLSYGYDYWGQGTQVTVSS”, “high polyreactivity”; with “QVQLVESRRGLVQAGASLPLRCAASVSTLDTYAMGLYRQAPGKERELVAAISRSGNSTYYADSVKGRFTISRDNAKNTVYLQMNSLKPEDTAVYYCAAYGPRVNGEIGREYYYWGQGTQVTVSS”, “low polyreactivity”.
With “QVQLVESRRGLVQAGGSIRLSCAASGSTFPYNAMGWYRQAPGKDRELVAAITSAGGTNYADSVKGRFTISRDNAKNSVYLQMNSLKPEDSAVYSCAAVGSGYYDGYFYWGQGTQVTVSS” the entry was “low polyreactivity”; with “QVQLVESRVGLVQAGGSLRLSCAASGFTFGHYVMGWYRQAPGKERELVAAITLSGGGTYYADSVKGRFTISRDNAKNTVYLQMNSLKPEDTAVYYCAAVGGEHAKKTYSRYKVDYWGQGTQVTVSS”, “low polyreactivity”; with “QVQLVESSGGLVQAGGSLRLSCAASGSTFALYAMGRYSQAPGKERELVAAITASGGSTYYADSVKGRLTISRDIAKKTVDLQMNSLKAEDTAVYYCATGRTKRYLYPPGYWGQGTQVTVSS”, “high polyreactivity”.
As for “QVQLVESVGCLVQAGGSLRLSCPASGFNFPGYALGWYRQAPGKERELVAAITGSGGRTYYADSVKGRFTISRDNAKNTVYLQMNSLKQEDTAVYYCLARSYYNWNDYWGQGTQVTVSS”, the “polyreactivity (PSR sort gate)” value is on record as “high polyreactivity”.
To “QVQLVESVGGIVQAGGSLRLSCAASGSIINWYAMGWYRQAPGKERELVAAISSSGSTNYADSVKGRFTISRDNAKNTVYLQMNSLKPEDTAVYYCNADEYYLNNYNYGYWGQGTQVTVSS” belongs “low polyreactivity”.
